Laboratory results taken from patent publication US20090124555A1, “USE OF HISTOGRANIN AND HISTOGRANIN-LIKE COMPOUNDS AS INHIBITORS OF P2X7 RECEPTOR FUNCTION AND AS ANTI-ARTHRITIC AGENTS” (priority 2005, published 2009).
“Also recorded” adds a separate entry of the source.

Experiments:
[1] = biological target: T1, P2X7 receptor (Mus musculus, UniProt Q9Z1M0); test: ATP-induced extracellular release of IL-1.beta, IL-1.alpha and IL-6 in vivo (peritoneal lavage of LPS-primed mice); conditions: 0.1 mg and 0.3 mg i.p. 15 min before ATP, FIG. 6B
T1 construct: from tissue; host or cells: living mice; peritoneal cavity (lavage fluid analysed)
T1 sequence (Q9Z1M0 1-595): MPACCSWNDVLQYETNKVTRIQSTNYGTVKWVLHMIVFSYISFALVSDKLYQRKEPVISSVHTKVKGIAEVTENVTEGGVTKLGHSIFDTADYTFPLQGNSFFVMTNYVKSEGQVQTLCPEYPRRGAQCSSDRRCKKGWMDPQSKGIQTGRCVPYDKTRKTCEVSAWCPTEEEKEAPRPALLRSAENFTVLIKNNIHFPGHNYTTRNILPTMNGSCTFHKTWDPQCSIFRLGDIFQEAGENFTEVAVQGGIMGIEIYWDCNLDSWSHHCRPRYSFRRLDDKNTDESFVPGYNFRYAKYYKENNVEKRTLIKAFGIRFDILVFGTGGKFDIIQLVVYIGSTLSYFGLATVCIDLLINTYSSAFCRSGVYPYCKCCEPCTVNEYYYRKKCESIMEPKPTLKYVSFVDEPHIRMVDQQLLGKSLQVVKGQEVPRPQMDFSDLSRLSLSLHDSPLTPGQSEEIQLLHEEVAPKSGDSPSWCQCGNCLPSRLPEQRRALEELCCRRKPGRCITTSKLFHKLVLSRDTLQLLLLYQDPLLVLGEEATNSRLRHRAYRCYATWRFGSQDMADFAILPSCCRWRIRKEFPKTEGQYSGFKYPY
Description: Groups of mice were injected intraperitoneally (i.p.) with 50 μg of LPS. Two hours after this LPS injection, mice were injected i.p. with either PBS or ATP (5 mM, adjusted to pH 7), or with HN compounds (0.1 mg and 0.3 mg) 15 minutes before ATP injection. Mice were sacrificed 30 minutes (IL-1.beta and IL-1.alpha) or 120 minutes (IL-6) after the ATP or PBS injection and peritoneal cavities were lavaged each with 3 ml PBS. Samples of peritoneal lavages were centrifuged, cell-free supernatants were collected and tested for the presence of IL-1.beta, IL-1.alpha and IL-6 using ELISA (R&D Systems, Minneapolis, Minn., and Biosource, Camarillo, Calif., respectively).

[2] = test system: DBA/1 mice with collagen-induced arthritis; test: Collagen-induced arthritis (CIA) in mice, clinical and histologic scoring; assay type: in vivo; conditions: 0.3 mg i.p. daily before LPS and onset
Description: For induction of arthritis, DBA/1 mice (The Jackson Laboratory, Bar Harbor, Me.) were immunized intradermally at the base of the tail with bovine type II collagen (100 μg; Chondrex, Richmond, Wash.) emulsified in Freund's complete adjuvant (Chondrex, Richmond, Wash.). On day 21, the animals were boosted with an intradermal injection of 100 μg type II collagen. To synchronize the onset of arthritis, mice were subsequently injected i.p. with LPS (50 μg) (Yoshino et al. (2000) J. Immunol. 163:3417-3422).
To test the subject of the present invention, mice were divided in various groups: mice injected with saline (negative control), mice injected with collagen and LPS (positive control), mice injected with collagen and treated i.p. daily with HN compound starting 2 days before i.p. injection of LPS and onset of arthritis, and mice injected with collagen and LPS, and treated i.p. daily with RN compound after the onset of arthritis as monitored by the presence of a positive clinical score index as described below.
The incidence of arthritis was monitored daily by macroscopic clinical scoring on a 0-3 scale where 0=normal: 1=slight swelling and erythema. […] Limb swelling was also measured with calipers (Wallace et al. (1999) J. Immunol. 162:5547-5555). […] Cartilage destruction was evaluated as the extent of loss of glycosaminoglycan matrix, death of chondrocytes, thinning and destruction. […]

[3] = biological target: T2, P2X7 receptor (Rattus norvegicus, UniProt Q64663); test: ATP-induced membrane permeabilization and pore formation (ethidium bromide uptake) in alveolar macrophages; assay type: cell-based; conditions: rat alveolar macrophages, FIG. 1A
T2 construct: Alveolar macrophages (AM) were recovered from normal rats by bronchoalveolar lavage; endogenous in cells; host or cells: primary alveolar macrophages from male Wistar rats (bronchoalveolar lavage)
T2 sequence (Q64663 1-595): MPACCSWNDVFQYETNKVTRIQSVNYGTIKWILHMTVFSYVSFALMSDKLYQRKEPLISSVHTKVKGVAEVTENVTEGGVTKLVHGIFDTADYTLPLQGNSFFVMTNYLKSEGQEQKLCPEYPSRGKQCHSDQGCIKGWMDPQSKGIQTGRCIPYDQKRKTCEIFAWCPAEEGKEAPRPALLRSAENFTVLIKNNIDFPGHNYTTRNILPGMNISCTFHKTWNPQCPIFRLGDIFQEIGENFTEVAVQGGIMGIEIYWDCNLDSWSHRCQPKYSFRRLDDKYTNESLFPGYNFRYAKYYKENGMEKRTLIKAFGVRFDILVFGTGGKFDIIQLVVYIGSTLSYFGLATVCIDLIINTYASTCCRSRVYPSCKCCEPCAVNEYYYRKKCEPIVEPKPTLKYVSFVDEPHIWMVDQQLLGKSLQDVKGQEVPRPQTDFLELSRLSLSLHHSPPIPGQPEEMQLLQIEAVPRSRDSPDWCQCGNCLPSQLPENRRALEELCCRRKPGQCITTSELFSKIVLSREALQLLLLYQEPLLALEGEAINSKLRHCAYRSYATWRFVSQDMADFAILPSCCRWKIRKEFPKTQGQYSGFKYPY
Description: Alveolar macrophages (AM) were recovered from normal rats by bronchoalveolar lavage (BAL) as described previously (Lemaire (1991) Am. J. Pathol. 138:487-495). The lungs were lavaged with 7 ml-aliquots of sterile phosphate buffered saline (pH 7.4; Wisent, St. Bruno, QC), and BAL cells were obtained by centrifugation at 200×g at 4° C. for 5 minutes. The cells were resuspended in RPMI 1640 medium (Wisent, St-Bruno, QC) supplemented with 0.5% dialysed fetal bovine serum (Wisent. St-Bruno, QC), 0.005% gentamycin (Schering Canada Inc. Pointe Claire. QC) and 0.8% HEPES (Sigma Chemical Co., St-Louis, MO) which will henceforth be referred to as complete culture medium (CM).
Freshly isolated AM (1×10^5) were incubated in 200 μl complete medium in 96 wells tissue culture plates for 24 h. Following centrifugation, medium was replaced with saline solution containing 125 mM NaCl, 5 mM KCL, 1 mM MgSO4, 1 mM Na2HPO4, 5.5 mM glucose, 5 mM NaHCO3, 1 mM CaCl2 and 20 mM Hepes, pH 7.6. Ethidium bromide was added to a final concentration of 20 μM and AM were stimulated with ATP (5 mM, Sigma), 3′-O-(4-benzoylbenzoyl ATP (BzATP) (0.5 mM, Molecular Probes) or uridine 5′-triphosphate (UTP) (Sigma), at 37° C. for 5 minutes. In some experiments, cells were pre-treated with oxidized ATP (oATP, 0.1 mM, Sigma) for 2 h or Brilliant Blue G (BBG, 5×10^−9M, Sigma) for 5 minutes, or HN compounds for 5 minutes before ATP stimulation. After ATP stimulation, the plate was centrifuged (200×g, 1 minute), culture supernatants were replaced with fresh buffer and the fluorescence was analyzed using a Zeiss Axiovert S1100 TV inverted microscope equipped with a rhodamine filter and a 32× objective. Images were captured and analysed with the Northern Eclipse image analysis software. Data are expressed as percentage of cells that become permeabilized to ethidium bromide.

[4] = biological target: T1, P2X7 receptor; test: P2X7 receptor-stimulated IL-1.beta release ex vivo, blood-based IL-1.beta assay in CIA mice; conditions: blood of i.p. treated CIA mice, FIG. 12C
Description: P2X7 receptor-stimulated IL-1 release ex vivo was performed with a blood-based IL-1.beta assay (Perregaux et al. (2000) J. Immunol. 165:4615-4623). Blood was collected from mice in each group in heparin-containing tubes. A total of 120 μl of blood was placed into an individual well of a 96-well plate and diluted with 120 μl RPMI 1640 medium containing 25 mM HEPES and 1% dialysed FBS. The diluted blood samples were incubated for 3 h in the presence and absence of LPS (1 μg/ml) at 37° C. in 5% CO2. ATP (5 mM, pH 7) was then added as a secretion stimulus and the mixtures were incubated at 37° C. for an additional 2 h. The 96-well plates were then centrifuged at 700×g for 10 min at 4° C., and the resulting plasma samples were collected and assayed for their IL-1.beta content by ELISA (R&D Systems, Minneapolis, Minn.).

Row | Molecule | IL-1.beta in peritoneal lavage in response to ATP, various HN compounds [1] | arthritis score index ([2]; FIG. 12A) | histological score index ([2]; both knees, FIG. 12B) | inhibition of ATP-induced pore formation (ethidium bromide uptake) ([3]; ATP 5 mM, 5 min, compound 10^−9M) | inhibition of BzATP-induced pore formation ([3]; BzATP 0.5 mM) | ATP-induced IL-1.beta release in peripheral blood ([4]; ATP without LPS ex vivo) | LPS+ATP-induced IL-1.beta release in peripheral blood ([4]; LPS 3 h then ATP 2 h ex vivo)
1 | N=C(N)NCCC[C@H](Nc1ccccc1NC(=O)Cc1ccc(O)cc1)C(N)=O [C-11, N-5-guanidinopentanamide-(2S)-yl-2-N (p-hydroxyphenylacetyl)phenylenediamine] | inactive; also recorded: did not inhibit | did not reduce | did not reduce | – | – | – | –
2 | cyclic (-Gly-Ala-Tyr-D-Arg-) (GAYR; HELM PEPTIDE1{G.A.Y.[dR]}$PEPTIDE1,PEPTIDE1,1:R1-4:R2$$$V2.0; SMILES C[C@@H]1NC(=O)CNC(=O)[C@@H](CCCNC(=N)N)NC(=O)[C@H](Cc2ccc(O)cc2)NC1=O) [C-9] | reduced levels | – | – | inhibited significantly | inhibit | inhibit | inhibit
